{"source": "paper PMC549075", "about": "“HIV-1 Tat protein enhances Microtubule polymerization” (Retrovirology, 2005)", "binders": {"B1": {"name": "HIV-1 Tat protein, HxB2 strain (natural protein)", "chain": "MEPVDPRLEPWKHPGSQPKTACTNCYCKKCCFHCQVCFITKALGISYGRKKRRQRRRAHQNSQTHQASLSKQPTSQPRGDPTGPKE"}}, "key": {"Lamb brain tubulin [1]": {"biological_target": "Lamb brain tubulin (lamb)", "experiment": "cell-based or functional assay"}, "Lamb brain tubulin [2]": {"biological_target": "Lamb brain tubulin (lamb)", "experiment": "cell-based or functional assay", "remark": "listed apart in the source"}}}
{"binder": "B1", "values": [{"measurement": "ΔOD ratio (plateau with 8 μM compound divided by plateau of tubulin alone)", "setting": "Lamb brain tubulin [1]", "result": 3.31}, {"measurement": "fold increase of the turbidity plateau over tubulin alone, 4 μM and 8 μM Tat with 15 μM tubulin", "setting": "Lamb brain tubulin [2]", "result": 3.7, "unit": "fold"}]}
